Test [1] concerns the target ToxR-TM-MBP chimera with the transmembrane domain of the FtsI homolog annotated for S. pneumoniae (S. pneumoniae). The experiment in a line: TOXGREEN
Test [2] addresses ToxR-TM-MBP chimera with the transmembrane domain of the FtsI homolog annotated for S. pyogenes (S. pyogenes).

For the substance “ToxR-TM-MBP chimera with the transmembrane domain of the FtsI homolog annotated for S. pneumoniae (domain or fragment)”, in test [1], the GFP expression, percent of GpA is > 100 % of GpA.
With “ToxR-TM-MBP chimera with the transmembrane domain of the FtsI homolog annotated for S. pyogenes (domain or fragment)”, in test [2], the GFP expression, percent of GpA was > 100 % of GpA.

Source of the values: publication PMC5045792.
